Test results published in patent US5084274A, “Inhibition of arterial thrombotic occlusion or thromboembolism” (Scripps Clinic and Research Foundation, priority 1987, dated 1992).

Tests used:
[1] = test system: acute myocardial infarction / occluded coronary arteries; conditions: cited from earlier work
[2] = test system: platelet deposition in the Dacron graft; assay: Platelet deposition (thrombus formation) in Dacron graft, arterial thrombosis model, 111In-labeled platelets; type: in vivo, baboon; conditions: 1 mg of t-PA (0.1 mg/kg/hour) infusion; previous studies, same model
Method: Permanent arteriovenous shunts were prepared between the femoral artery and vein using 3 mm i.d. Silastic tubing Subsequent interposition of 5 cm long, 4 mm i.d. Dacron vascular grafts served as thrombogenic surface, inducing continuous platelet-fibrinthrombus formation until progressive occlusion of the graft at 70±20 min.
All baboons underwent at least one control experiment prior to APC administration. The APC was given by injecting one-fourth to one-third of the total PC dose as a bolus and the remaining three-fourths to two-thirds of the dose as continuous infusion for one hour. The interposition of the graft and bolus injection were made at time=0 and APC was administered at the proximal site of the Silastic shunt. The experiments were divided into three groups; the "low dose" APC group received 2.0-3.4 mg (total), the "high dose" APC group received 11 mg (total), and the combination group received 2.1 mg APC plus 1.3 mg t-PA (total).
Platelet Deposition in the Dacron Graft
The deposition of ^III In-labeled Platelets was detected by scintillation camera images of the graft. […] Inhibition of platelet deposition in treated animals was expressed as % of total number of platelets deposited in the control experiments at 30 and 60 minutes timepoints.

B1: t-PA: t-PA from a melanoma cell line, provided by Dr. Desire Collen (Leuven, Belgium) (protein, UniProt P00750 36-562, looked up)
Tissue-type plasminogen …: SYQVICRDEKTQMIYQQHQSWLRPVLRSNRVEYCWCNSGRAQCHSVPVKSCSEPRCFNGGTCQQALYFSDFVCQCPEGFAGKCCEIDTRATCYEDQGISYRGTWSTAESGAECTNWNSSALAQKPYSGRRPDAIRLGLGNHNYCRNPDRDSKPWCYVFKAGKYSSEFCSTPACSEGNSDCYFGNGSAYRGTHSLTESGASCLPWNSMILIGKVYTAQNPSAQALGLGKHNYCRNPDGDAKPWCHVLKNRRLTWEYCDVPSCSTCGLRQYSQPQFRIKGGLFADIASHPWQAAIFAKHRRSPGERFLCGGILISSCWILSAAHCFQERFPPHHLTVILGRTYRVVPGEEEQKFEVEKYIVHKEFDDDTYDNDIALLQLKSDSSRCAQESSVVRTVCLPPADLQLPDWTECELSGYGKHEALSPFYSERLKEAHVRLYPSSRCTSQHLLNRTVTDNMLCAGDTRSGGPQANLHDACQGDSGGPLVCLNDGRMTLVGIISWGLGCGQKDVPGVYTKVTNYLDWIRDNMRP
Patients with reocclusion after discontinuing t-PA infusion ([1]; after successful thrombolytic reperfusion, despite full-dose heparin therapy): between one-four and one-third of patients
Thrombolysis in acute myocardial infarction (in words) ([1]; infusion into humans): effective thrombolysis
Antiplatelet effect (in words, FIG. 8) [2]: intermediate antiplatelet effect
